Reference: US20260028421A1 (JIANGSU HENGRUI PHARMACEUTICALS, published 2026)

Key:
[1] = biological target: T1, Human GUCY2C protein on cells (HCT116/hGUCY2C, HT-55, T84, LS1034, LS174T) (human, UniProt P25092 24-1073); assay: flow cytometry on HCT116/hGUCY2C cells, PE anti-human IgG Fc secondary antibody
T1 construct: also called GUCY2C on the cell surface

[2] = biological target: T2, hGUCY2C ECD-His (human, UniProt P25092 24-430); assay: competition ELISA, row antibody coated; competitor 1608-biotinylated
T2 construct: also called human GUCY2C protein

[3] = biological target: T2, hGUCY2C ECD-His; assay: competition ELISA, row antibody coated; competitor 81 L3H1-biotinylated
[4] = biological target: T2, hGUCY2C ECD-His; assay: SPR Biacore, antibody captured
[5] = biological target: T2, hGUCY2C ECD-His; assay: competition ELISA, row antibody coated; competitor P3-C7 L7H1-biotinylated
[6] = biological target: T2, hGUCY2C ECD-His; assay: competition ELISA, row antibody coated; competitor 146 L1H1-biotinylated
[7] = biological target: T1, Human GUCY2C protein on cells …; assay: flow cytometry on T84 cells, PE anti-human IgG Fc secondary antibody
[8] = biological target: T1, Human GUCY2C protein on cells …; assay: flow cytometry on HCT116/hGUCY2C cells, PE anti-human IgG Fc secondary antibody; remark: listed apart in the source
[9] = biological target: T1, Human GUCY2C protein on cells …; assay: as above; remark: listed apart in the source

Binder | EC50 (read off the curve) [1] [nM] | relative competition coefficient [2] | relative competition coefficient [3] | Kd [4] [nM] | koff [4] [s⁻¹] | kon [4] [M⁻¹ s⁻¹] | relative competition coefficient [5] | relative competition coefficient [6] | EC50 (read off the curve) [7] [nM] | EC50 (read off the curve) [8] [nM] | EC50 (read off the curve) [9] [nM]
P3-C7 L7H1 (antibody, human IgG1, kappa, V domains shown, humanized, human IgG1/kappa) VH: EVQLVQSGAEVKKPGASVKVSCKASGYTFTDHYIHWVRQAPGQGLEWMGVINPYNDGATYNQKFKGRVTMTVDKSTSTVYMELSSLRSEDTAVYYCARPPRAYGNYAGYWGQGTTVTVSS VL: DVVMTQTPLSLPVTPGEPASISCRSSQSLVHSNQNTYLHWYLQKPGQSPQLLIYKVSNRFSGVPDRFSGSGSRTDFTLKISRVEAEDVGVYYCSQSTHVPYTFGGGTKVEIKR | ~2 | 10 | 6 | 7.77 | 0.000186 | 23900 | 100 | 13 | – | – | –
M61 CHI (antibody, human IgG1, kappa, V domains shown, chimeric) VH: EVQLQQSGPELVRPGASVKISCTASGYTITDYYMSWVKQSHGKSPEWIGDINPNNGGTSDNQKFKGKATLTVDKSSSTAYMEYRSLTSEDSAVYYCARGRGMVARYFDIWGTGTTVTVSS VL: EILLTQSPTTMAASPGEKITITCSASSSISSNFLHWYQEKPGFSPKLLIYRTSNLASGVPARFSGSGSGTSYSLTIGSMEAEDVATYYCQQGSGLPLTFGAGTKLELKR | – | – | – | 4.49 | 0.000228 | 50800 | – | – | ~2 | – | –
81 L3H1 (antibody, human IgG1, kappa, V domains shown, humanized, human IgG1/kappa) VH: EVQLVQSGAEVKKPGASVKVSCKASGYTFTDHNMNWVKQAPGQRLEWMGVMNPKFGTINYNQKFKDKATITRDTSASTAYMELSSLRSEDTAVYYCARDNYPNYFDYWGQGTTVTVSS VL: DIQLTQSPSFLSASPGDRVTITCSASSSVNYMYWYQQKPGSSPKSWIYRTSNLASGVPSRFSGSGSGTEYTLTISSLQPEDFATYYCQQYHDYPPTFGGGTKVEIKR | ~1 | 11 | 100 | 0.29 | 5.19e-05 | 181000 | 3 | 81 | – | – | –

Now from value to binder:

EC50 (read off the curve) [1] [nM] | relative competition coefficient [2] | relative competition coefficient [3] | Kd [4] [nM] | koff [4] [s⁻¹] | kon [4] [M⁻¹ s⁻¹] | relative competition coefficient [5] | relative competition coefficient [6] | EC50 (read off the curve) [7] [nM] | EC50 (read off the curve) [8] [nM] | EC50 (read off the curve) [9] [nM] | Binder
~2 | 12 | 99 | 0.92 | 0.000117 | 127000 | 4 | 100 | – | – | – | 146 L1H1 (antibody, human IgG1, kappa, V domains shown, humanized, human IgG1/kappa) VH: EFQLVQSGAEVKKPGASVKVSCKASGYSFTDYNMNWVRQAPGQRLEWMGLINPKYGTTNYNQKFKGRVTLTVDQSSSTAYMELSSLRSEDTAVYYCARDNYPAWFAYWGQGTTVTVSS VL: EIVLTQSPATLSLSPGERATLSCSASSSLNYMYWYQQKPGSSPRPWIYRTSQLASGVPARFSGSGSGTDYTLTISSLEPEDFAVYYCQQYHSYPPTFGGGTKVEIKR
– | – | – | 8.99 | 0.000335 | 37300 | – | – | ~0.5 | – | – | M42 CHI (antibody, human IgG1, kappa, V domains shown, chimeric) VH: QIQLKQSGPGLVQPSQSLSITCTVSGFSLTSYAVHWVRQSPGKGLEWLGVIWTGGNTRSNAAFMSRLTITKDNSKSQVFFKMNSLQADDTAIYFCAKNSLLDYAMDYWGQGTSVTVSS VL: ENVLTQSPVIMSASPGEKVTMTCRASSFVGSGYLHWYQQKSGASPKLWIYSTSKLASGVPARFSGSGSGTSFFLTISRVEIEDAAAYYCQQSSGYPLTFGGGSKLEIKR
~0.3 | 100 | 6 | – | – | – | 3 | 12 | – | ~0.3 | ~0.3 | 1608 (antibody, human IgG1, kappa, V domains shown) VH: EVQLVESGGGLVQPGGSLRLSCAASGFTFSSYWMHWVRQAPGKGLEWIGEIKPSNELTNVHEKFKDRFTISVDKAKNSAYLQMNSLRAEDTAVYYCTRTITTTEGYWFFDVWGQGTLVTVSS VL: DIQLTQSPSSLSASVGDRVTITCRASESVDYYGSSLLQWYQQKPGKAPKLLIYAASKLASGVPSRFSGSGSGTDFTLTISSLQPEDFATYYCQQTRKAYTFGQGTKLEIKR
